The target in test [1] is T1, Wild type HP1α (His tag or GST tag attached) (UniProt P45973 1-191).
T1 construct: also called heterochromatin protein 1; not shown: His tag or GST tag
As to the kind of experiment: isothermal titration calorimetry, average of 5 experiments. On the procedure:
(§1) Wild type HP1α and a region at positions 121 to 270 in INCENP (SEQ ID NO: 8, INCENP WT) were used in the binding assay. The region at positions 121 to 270 in INCENP contains an important motif […], required for binding to HP1. A mutant (SEQ ID NO: 9, INCENP 3A) was obtained by substituting three amino acids in this region with alanine residues and used as a control. A dissociation constant thereof was determined by isothermal titration calorimetry. As an isothermal titration calorimetry apparatus, any device may be used. For example, using MicroCal iTC2000 system (manufactured by GE healthcare biosciences), measurement may be carried out, in accordance with a conventional method.
(§2) The above peptides, to which His tag or GST tag was attached, were subjected to isothermal titration calorimetry to determine a dissociation constant. Note that, the dissociation constant was computationally obtained based on average values of 5 experiments.
For orientation: In ITC the heat of successive injections is recorded.

For test [2], the target named is T1, Wild type HP1α (His tag or GST tag …). As to the kind of experiment: isothermal titration calorimetry. On the procedure: as §1, §2
Test [3] addresses T2, GST-Aurora B (UniProt Q96GD4 1-344, limits assumed).
T2 construct: not shown: GST
As to the kind of experiment: GST pull down with recombinant full-length INCENP + GST-Aurora B, without HP1α, with HP1α WT or with I165E; immunoblot and bar chart of Hec1 binding. As for the experimental part: Then, enzyme kinetics analysis of Aurora B was carried out. […] Further, analysis of proteins binding to GST-Aurora B was carried out by the GST pull down assay. As a result, the amount of Hec1 binding to GST-Aurora B increased in the conditions where HP1 can bind to INCENP. […] Accordingly, binding of HP1α to INCENP is required for activating Aurora B.
Background: A western blot detects proteins with antibodies after separation by electrophoresis.

In test [4] the target is INCENP (Inner Centromere Protein), endogenous, as part of the chromosomal passenger complex (CPC) (human, UniProt Q9NQS7 1-918). As to the kind of experiment: INCENP immunoprecipitated from mitotic HeLa cell extract; amount of coprecipitated protein (INCENP in the same precipitate: 1280 pmol). On the procedure: The cells in the mitotic phase were incubated in a solution, which was prepared by adding 1 U/μl OmniCleave Endonuclease (manufactured by Epicentre) in the above immunoprecipitation buffer, at 4° C. for 30 minutes. The solution was centrifuged at 4° C. and 15,000 rpm for 10 minutes and the supernatant was further centrifuged. The resultant supernatant was used for immunoprecipitation. Protein A-Sepharose (manufactured by Bio-Rad) having an antibody bound thereto, was allowed to react with cell extracts and subjected to immunoprecipitation. […]
Next, whether or not binding to INCENP differs among the subtypes of HP1 was analyzed (FIG. 1B). […] Mitotic HeLa cell extracts were subjected to immunoprecipitation with an INCENP antibody or control IgG and then analyzed by immunoblotting using antibodies against INCENP, Aurora B (clone 6, manufactured by BD Bioscience) and Survivin (71G4B7E, manufactured by Cell Signaling Technology) constituting CPC; an HP1α antibody (clone 15.19s2, manufactured by Millipore), an HP1β antibody (clone 1MOD-1A9, manufactured by Millipore) and an HP1 γ antibody (clone 2MOD-1G6, manufactured by Millipore).
Quantitative analysis was carried out using purified recombinant HP1-subtype proteins.

Test [5] concerns the target T1, Wild type HP1α (His tag or GST tag …). As to the kind of experiment: alpha assay with acceptor and donor beads capturing His tag or GST tag. As for the experimental part:
If a candidate compound is added in the binding assay system, a compound influencing the binding of INCENP and HP1 can be screened. Further, a system for analyzing the binding of HP1 and INCENP based on an alpha assay, which is more sensitive and easier in operation, was constructed. The interaction between HP1α and INCENP was determined by using acceptor beads or donor beads that can capture His tag or GST tag and detecting fluorescent signal in accordance with a conventional method. As a result of that His tag or GST tag was attached to HP1α and a region at positions 160 to 210 in INCENP (SEQ ID NO: 10) and the aforementioned alpha assay using acceptor beads and donor beads was carried out, a binding can be sensitively detected. Accordingly, owing to HTS using the binding assay or alpha assay, compounds influencing the binding of HP1 and INCENP can be screened.

This note sets out measurements from patent US20190094207A1 (JAPANESE FOUNDATION FOR CANCER RESEARCH, published 2019).

Positions count from the first letter of the chain named.

Broadly, the Kd is the free concentration of one partner at which half of the binding sites on the other are occupied at equilibrium, for simple one-to-one binding. Read a low Kd as a tighter complex.

T1 sequence (P45973 whole entry): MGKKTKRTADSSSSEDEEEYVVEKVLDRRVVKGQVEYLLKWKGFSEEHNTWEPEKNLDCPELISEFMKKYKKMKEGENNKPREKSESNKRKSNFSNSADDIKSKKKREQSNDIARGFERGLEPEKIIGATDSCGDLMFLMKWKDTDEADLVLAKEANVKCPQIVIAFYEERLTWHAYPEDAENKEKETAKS
Sequence of INCENP (Inner Centromere Protein), endogenous, as part of the chromosomal passenger complex (CPC) (Q9NQS7 whole entry, one chain of several): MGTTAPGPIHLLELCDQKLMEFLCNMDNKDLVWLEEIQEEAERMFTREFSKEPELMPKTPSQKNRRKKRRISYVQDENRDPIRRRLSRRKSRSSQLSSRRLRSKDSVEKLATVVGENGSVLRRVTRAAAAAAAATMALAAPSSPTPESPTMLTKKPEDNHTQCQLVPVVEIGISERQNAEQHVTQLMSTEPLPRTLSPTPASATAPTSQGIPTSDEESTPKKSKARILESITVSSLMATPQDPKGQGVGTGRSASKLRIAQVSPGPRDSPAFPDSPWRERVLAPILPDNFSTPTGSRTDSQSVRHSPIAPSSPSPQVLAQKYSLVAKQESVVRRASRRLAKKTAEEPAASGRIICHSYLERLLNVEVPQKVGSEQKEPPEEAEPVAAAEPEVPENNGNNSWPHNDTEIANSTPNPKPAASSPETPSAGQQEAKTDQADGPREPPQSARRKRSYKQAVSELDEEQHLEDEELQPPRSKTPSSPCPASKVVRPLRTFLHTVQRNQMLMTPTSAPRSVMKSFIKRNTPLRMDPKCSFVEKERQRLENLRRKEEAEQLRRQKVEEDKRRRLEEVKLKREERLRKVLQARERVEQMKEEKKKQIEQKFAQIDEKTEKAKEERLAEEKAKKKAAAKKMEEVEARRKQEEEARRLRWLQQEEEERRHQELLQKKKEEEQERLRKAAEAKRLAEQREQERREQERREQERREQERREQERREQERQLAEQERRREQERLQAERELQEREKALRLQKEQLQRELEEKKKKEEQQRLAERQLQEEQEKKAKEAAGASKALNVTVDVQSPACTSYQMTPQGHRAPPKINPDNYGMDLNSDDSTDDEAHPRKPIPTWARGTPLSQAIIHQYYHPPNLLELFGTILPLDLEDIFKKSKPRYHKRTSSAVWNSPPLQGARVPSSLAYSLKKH

B1: INCENP WT (region at positions 121 to 270 in INCENP) (peptide)
chain: LRRVTRAAAAAAAATMALAAPSSPTPESPTMLTKKPEDNHTQCQLVPVVEIGISERQNAEQHVTQLMSTEPLPRTLSPTPASATAPTSQGIPTSDEESTPKKSKARILESITVSSLMATPQDPKGQGVGTGRSASKLRIAQVSPGPRDSP
notes: also called INCENP 121-270; not shown: His tag or GST tag
In test [1], B1 had a Kd of 102 nM.

B2: INCENP 3A (region 121 to 270 of INCENP with three amino acids substituted with alanine) (peptide)
chain: B1 chain with P47A, V49A, I51A
notes: also called INCENP 3A mutant; not shown: His tag or GST tag
Consider B2, for which the binding result in test [2] was “no binding”.

B3: Hec1 (other, UniProt O14777 1-80, looked up)
chain: MKRSSVSSGGAGRLSMQELRSQDVNKQGLYTPQTKEKPTFGKLSINKPTSERKVSLFGKRTSGHGSRNSQLGIFSSSEKI
notes: also called Aurora B substrate
On to B3, for which the binding result in test [3] is listed as “binds”.

B4: Aurora B (endogenous) (enzyme, human, UniProt Q96GD4 1-344, looked up)
chain: MAQKENSYPWPYGRQTAPSGLSTLPQRVLRKEPVTPSALVLMSRSNVQPTAAPGQKVMENSSGTPDILTRHFTIDDFEIGRPLGKGKFGNVYLAREKKSHFIVALKVLFKSQIEKEGVEHQLRREIEIQAHLHHPNILRLYNYFYDRRRIYLILEYAPRGELYKELQKSCTFDEQRTATIMEELADALMYCHGKKVIHRDIKPENLLLGLKGELKIADFGWSVHAPSLRRKTMCGTLDYLPPEMIEGRMHNEKVDLWCIGVLCYELLVGNPPFESASHNETYRRIVKVDLKFPASVPMGAQDLISKLLRHNPSERLPLAQVSAHPWVRANSRRVLPPSALQSVA
On to B4, for which the “Amount” value in test [4] was 1110 pmol.

B5: Region at positions 160 to 210 in INCENP (peptide)
chain: TQCQLVPVVEIGISERQNAEQHVTQLMSTEPLPRTLSPTPASATAPTSQG
notes: Used in the alpha assay with HP1α; also called INCENP 160-210; not shown: His tag or GST tag
Consider B5, for which the binding result in test [5] is “binds”.
